assay: soluble on expression in E. coli; label from the status in PepcDB or PDB records

| Sequence | soluble on expression in E. coli |
| --- | --- |
| KNCCVYDMATNTLVDAAPYGERSSDYQLATLFHNPGNNNEYLLSQVIEVLDDICQSKEIASETKTKAHWLLSYEPRLPDGDKVKRLLSILEQTLEAFSK | not soluble |
| MSANFTDKNGRQSKGVLLLRTLAMPSDTNANGDIFGGWIMSQMDMGGAILAKEIAHGRVVTVAVESMNFIKPISVGDVVCCYGQCLKVGRSSIKIKVEVWVKKVASEPIGERYCVTDAVFTFVAVDNNGRSRTIPRENNQELEKALALISEQPLLEHHHHHH | not soluble |
| HHHHHHMSKRETFNETFLKAARGEKADHTPVWYMRQAGRSQPEYRKLKEKYGLFEITHQPELCAYVTRLPVEQYGVDAAILYKDIMTPLPSIGVDVEIKNGIGPVIDQPIRSLADIEKLGQIDPEQDVPYVLETIKLLVNEQLNVPLIGFSGAPFTLASYMTEGGPSKNYNKTKAFMYSMPDAWNLLMSKLADMIIVYVKAQIKAGAKAIQIFDSWVGALNQADYRTYIKPVMNRIFSELAKENVPLIMFGVGASHLAGDWHDLPLDVVGLDWRLGIDEARSKGITKTVQGNLDPSILLAPWEVIEQKTKEILDQGMESDGFIFNLGHGVFPDVSPEVLKKLTAFVHEYSQNKKMGQYS | soluble |
| MSYDTDPFRGEFDSLEEFADRVSDVLKCPVTIEDANHRLIAYSAHDDYTDPARTATIISRRVPEKVINSLWKQGAIPALLKSREPVRVPPIHDVGLGSRVAVSIWKNDEVIGFIWVLETNRTLSPEEMEWLKLAAKAAKNKVLQLYMRKNKKEERVQELFWKLLTGHIAREDDIRAHLAAMQIPTAPQFAVVVFRFAADLTAEMERQISYLLQTTQQLPLLLYTTDGRDVILLAAPKTDQPLKELNAFIESFAAKMKERFHIHDVQCGFGGVYGIYRLIEKSYREALAVLALKEKLGDEIKSVYGYAQLGIYQFFDLLLEQKRQGEWTNPALTKLQSYDQKHHSDLVKTFETFFDHNENAQETADVLNVHPNTLAYRLKRIADIAELDLNDMNQKIKLYIDIKLAKYEARG | not soluble |
| MGSDKIHHHHHHMNKDIPVLIFSDKLNINGDYPIIKIINEQSLPYILKHEIGGLKDWFKSRVIPTNRNHLEKLIESLQFEKKPTALDYLKLNNGFSLNDSYWIKPLDISSMYPKDLCWDKYNLYDNKFEEALGLVTFFGNNTSLGGTVNTPKVSSPELTTQGVMNKAWRRTDNKLLLYKRGNIGAANLDKEHFSESIASEIGKILGLNCIPYWTDKWHNQNCSVCEIFTNKDKGYLPFRYFLEAIEPNRKKWGFANVIEWIPKEFKQDFLDMIVFDYIIENRDRHLGNFGFIIDNNTQELLSFAPLFDQGYSLMANALEEDFNKDLKEYSESHPSFVLENKDLAKYVIERNKQRYKGFTKTLRLKIDDINWFNCPNWYKEGIKKLIFTRCEVINSI | not soluble |
| MDALIMAGGKGTRLKENVEKPILNICEKPMIDYVIDSLLNSKIEKIYVAVSIHTPKTKEYLEKKYRLDRNYNPKIDIICTSGTNYVDDLNECMEFFKEPFLILSSDIPTIKPKVINSIIQDYLFVNNSCNRIESFCVVTKDDDYVGTPSINMGGYIPLGINILTPKHGEQTEILHVIKDIIVNVNTLSDKKLVETLINKVVELEHHHHHH | soluble |
| MGSDKIHHHHHHMAEFFPEIPKIQFEGKESTNPLAFRFYDPNEVIDGKPLKDHLKFSVAFWHTFVNEGRDPFGDPTAERPWNRFSDPMDKAFARVDALFEFCEKLNIEYFCFHDRDIAPEGKTLRETNKILDKVVERIKERMKDSNVKLLWGTANLFSHPRYMHGAATTCSADVFAYAAAQVKKALEITKELGGEGYVFWGGREGYETLLNTDLGLELENLARFLRMAVEYAKKIGFTGQFLIEPKPKEPTKHQYDFDVATAYAFLKNHGLDEYFKFNIEANHATLAGHTFQHELRMARILGKLGSIDANQGDLLLGWDTDQFPTNIYDTTLAMYEVIKAGGFTKGGLNFDAKVRRASYKVEDLFIGHIAGMDTFALGFKIAYKLAKDGVFDKFIEEKYRSFKEGIGKEIVEGKTDFEKLEEYIIDKEDIELPSGKQEYLESLLNSYIVKTIAELR | not soluble |
| DSKKIVGVFYKANEYATKNPNFLGCVENALGIRDWLESQGHQYIVTDDKEGPDCELEKHIPDLHVLISTPFHPAYVTAERIKKAKNLKLLLTAGIGSDHIDLQAAAAAGLTVAEVTGSNVVSVAEDELMRILILMRNFVPGYNQVVKGEWNVAGIAYRAYDLEGKTIGTVGAGRIGKLLLQRLKPFGCNLLYHDRLQMAPELEKETGAKFVEDLNEMLPKCDVIVINMPLTEKTRGMFNKELIGKLKKGVLIVNNARGAIMERQAVVDAVESGHIGGYSGDVWDPQPAPKDHPWRYMPNQAMTPHTSGTTIDAQLRYAAGTKDMLERYFKGEDFPTENYIVKDGELAPQYR | soluble |
| MRGSHHHHHHGSSQVADKDDPTNKFYQSVIQLGNGFLDVFTSFGGLVAEAFGFKSDPKKSDVKTYFTTVAAKLEKTKTDLNSLPKEKSDISSTTGKPDSTGSVGTAVEGAIKEVSELLDKLVKAVKTAEGASSGTAAIGEVVADADAAKVADKASVKGIAKGIKEIVEAAGGSEKLKAVAAAKGENNKGAGKLFGKAGAAAHGDSEAASKAAGAVSAVSGEQILSAIVTAADAAEQDGKKPEEAKNPIAAAIGDKDGGAEFGQDEMKKDDQIAAAIALRGMAKDGKFAVKDGEKEKAEGAIKGAAESAVRKVLGAITGLIGDAVSSGLRKVGDSVKAASKETPPALNK | soluble |
| MDIHVLSYGLGNQLSQYAFFINRRQLMQRAYAFYAFKQHNGYELDRIFGLKEGLPWYLQFVRVVFRLGISRRFYSKRTADFVLSLFRIKVIDEAYNYEFDPSLLKPWFGIRILYGGWHDSRYFHPSEAAVRTAFSFPPLDDVNDAILQQIDAVYGVSIHVRRGDYLKGINSNLFGGIATLEYYRNAIGWAITYCKHRSLEIKFYVFSDDIDWCKQNLGLRDAVYVSGNSKTDSWKDILLMSHCRANIIANSTFSWWAAWLNQQPNKVVICPTKFINTDSPNQTIYPAAWHQIEGLEHHHHHH | not soluble |
| MATNESLKEQLAKRNGRKPAANGNGEPITLKALLASPKVKKRFEEVLDKRAPQFMTSIINLYSNDSGLQKCDPMTVISSAMVAASLDLPIDKNLGYAWIVPYYDRKTKSYRAQFQLGYKGYIQLALRSGQYRYINAIPVRKGELIKWDPLTEEIEIDFEARESDEVIGYAAFFELLNGFRKTVYWRKEDVEAHRQKYSKSGFGWENDWDAMALKTVIKSLLSRWGILSVEMQKAVIEDDEERLNPPADNVVEIEPEKPEVPENDEPVFELPLDVEVEVPFEEDEKDGDDQEG | not soluble |
| MGSDKIHHHHHHMDQQKKIQILKDLVNIDSTNGHEEQVANYLQKLLAEHGIESEKVQYDLDRASLVSEIGSSNEKVLAFSGHMDVVDAGDVSKWKFPPFEATEHEGKLYGRGATDMKSGLAAMVIAMIELHEEKQKLNGKIRLLATVGEEIGELGAEQLTQKGYADDLDGLIIGEPSGHRIVYAHKGSINYTVKSTGKNAHSSMPEFGVNAIDNLLLFYNEVEKFVKSIDATNEILGDFIHNVTVIDGGNQVNSIPEKAQLQGNIRSIPEMDNETVKQVLVKIINKLNKQENVNLELIFDYDKQPVFSDKNSDLVHIAKSVASDIVKEEIPLLGISGTTDAAEFTKAKKEFPVIIFGPGNETPHQVNENVSIGNYLEMVDVYKRIATEFLS | not soluble |
| MSLPCNKHPFYQQLEQQLDTTRTEGLYKNERVITSAQQANIAVADGSRVINFCANNYLGLANHPKLIAAAKAGMDSHGFGMASVRFICGTQDIHKELEHKLASFLGMEDAILYSSCFDANGGLFETLLGPEDAIISDALNHASIIDGVRLCKAKRYRYANNDMTELEAQLKQAKAEGARHIMIATDGVFSMDGVIANLKRVCDLADEYQALVMVDDSHAVGVIGANGRGTHEYCEVMDRVDIITGTLGKALGGASGGYTAGRKELVEWLRQRSRPYLFSNSLAPAIVAASIEVLSLLEEGGALRDRLWANARLFREKMSAAGFTLAGADHAIIPVMLGEAKLAQDFANALLKEGIYVTGFFFPVVPKGQARIRTQMSAGHTTEQVERAIEAFVRIGKQLNVIA | not soluble |
| MGSDKIHHHHHHMRVLVKLSGEALSGEGGRGFDPERVNYIVNEIKSAIEEGFKIGIVVGAGNLFRGVELKNLTMTRADQIGLLGTVMNSVYLKDIFERSGLKARIYSQIVNLPDVERVNYDSIESALRENSILIFAGGTSNPFFTTDTAAVLRAQEMRAKLVVKATKVDGVYDKDPKKFPDAKKIPHLTFSEAMKMGLKVMDAEAFALCKKLGITVKVINFFEPGTLLKALKGEDVGSTVVPD | not soluble |
| MSSENDFVEFSSMFERIIQGRGDGLSRFLPVIVALAAREDDDDQGSTDQTTRRGDPLSPRFVMIGSRSGLDDFFSDGGKQGRSPALKSEVENMPRVVIGEDKEKYGGSCAICLDEWSKGDVAAEMPCKHKFHSKCVEEWLGRHATCPMCRYEMPVEEVEEEKKIGIWIGFSINAGDRRN | not soluble |
| MDREALLERLKEPFDLLVLGGGATGAGVLWEATLRGLKAALVEAGDFASGTSSRSTKLLHGGVRYLELAFKRLDRRQLKLVVDALHERKVVMDLAPHLAKPLTLVTPLFRPLEIPYYTLGLKLYDLLAGKRRLAPSRYLPPEEVARLFPDLPKTLGGVAYQDGQFADFRLNLALVLSALERGAVALNHAEATALLLEGGRVRGAVVRDGLSGKEVEVRAKAVVNATGSLADRVRRLLDPHLPPLLTASSGVHLVLDYPLEAGLLVPKTRDGRVLFLLPYRGMALLGTTDLPAEPASCPLPREEEVAYLLEEIRPYLGDVSGRVRAVWSGLRPLVGKGETKLLVRDHYIEERRGLYTLVGGKWTTFRLMALDLVERLAKDLGLALPPSKSHATPLLGAGPRPPLPLPEEAARRLWETYGTLAPEVLALGDRPLLPGLPYLEGEVVWAVRRELARKPLDVLARRMGLAFLDQEKTREALPKVVELMAGLLGWDERERALRLKEAEEGLPGLC | soluble |
| MILGEIMEVLAFKNQSLIDHVNDMVKYWERIKYRYLKTIKRALEALNIKLDIEKVDEFMKILIKLHDIGKASKIYQRAIINDQEKLMGFRHELVSAYYTYHILLKKFGDKNLAFIGALTVMLHHEPIIMGQIRNLKKKELTAEVVLDKLKKFDGMIEDFEDLIKKLIGYSIGDIIKNDSNKDDIIRFVIEMSVRARHTPNSEKLRFIVGTLLLPLVMCDYKGAESREGKAPKFAEVLEVESYVI | soluble |
| MDLEYAMNPGGRRRFQNKDQATYGVFAPDSDDDDDEQGTSRGPYKKRSKISAPMSFVSGGIQQGNKIDKDDPASLNLNLGGEKKPKEDDEGSIQIDFDKRTKKAPKQNGAQVFAGMRSSANHGAADINQFGSWMRGDGNSNKIMKMMQAMGYKPGEGLGAQGQGIVEPVQAQLRKGRGAVGAYGKESTATGPKFGESAADAQKRMAQEGTSSRPTNDDQEKSGLKIKGSWKKSQTVKTKYRTIEDVMEEGMSASRPASHQQSQQYSNIKVIDMTGKQQKIYSGYDSFSMKTRSEYDTVDDEERTVFDVPELIHNLNLLVDLTEEGIRRSNQQLISLKDQTTALEYDLQQVQKSLGTEEQEAQHIKDVYELIDGFSSNRSPSMEECQELFRRLRSEFPHEYELYSLETVAIPTVLPLIQKYFVAWKPLEDKNYGCELISTWRDILDDSKNGRKMTFGHNKTKGDEIRAYDRIIWEGILPSIRRACLQWDPSTQMHEMIELVEQWIPLLSAWITENILEQLVVPKIAERVNQWDPMTDEIPIHEWLVPWLVLLGDRIQTVMPPIRQKLSKALKLWDPMDRSALETLRPWQNVWSAATFSAFIAQNIVPKLGVALDTMELNPTMNPEYPEWTACMEWLEFTHPDAIANIVTKYFFPRFYNCLCLWLDSPGVDYNEVKRWYGSWKARIPQVLVNYPTVNENLRRSMIAIGRSLQGEKVGGLQATPIAPMAPPPPMAPHFTQAAPVQKLSLKEIIEYTAGKNGFTYHPQKDRYKDGRQVFWFGALSIYLDSEMVYVMDPIEFVWRPSGLNELIQMAQGAQG | not soluble |

Reference: the DeepSol protein solubility set
